Assay results reported in patent US20120309051A1 (UNIVERSITY OF MEDICINE AND DENTISTRY OF NEW JERSEY, published 2012).

Target: T1, GFP-MG53 (GFP fused to the amino-terminus of full-length mouse MG53) (mouse, UniProt Q1XH17 1-477)
T1 sequence: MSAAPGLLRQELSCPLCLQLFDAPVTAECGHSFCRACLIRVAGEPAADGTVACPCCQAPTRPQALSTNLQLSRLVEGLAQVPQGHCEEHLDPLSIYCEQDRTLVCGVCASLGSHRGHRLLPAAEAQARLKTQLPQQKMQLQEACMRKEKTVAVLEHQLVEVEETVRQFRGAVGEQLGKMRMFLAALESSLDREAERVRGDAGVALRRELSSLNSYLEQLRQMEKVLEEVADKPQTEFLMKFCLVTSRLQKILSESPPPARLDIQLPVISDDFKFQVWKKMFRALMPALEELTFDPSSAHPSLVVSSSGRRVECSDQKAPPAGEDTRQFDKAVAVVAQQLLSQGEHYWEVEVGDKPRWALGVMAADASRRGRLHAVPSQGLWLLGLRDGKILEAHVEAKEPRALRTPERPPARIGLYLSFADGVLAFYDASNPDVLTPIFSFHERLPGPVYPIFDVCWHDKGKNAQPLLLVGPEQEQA
Experiment: cell-based or functional assay

- reduction in the appearance of filapodia-like structures (C2C12 myoblasts transfected with caveolin-3 and GFP-MG53 in a ratio of 10:1): 82%
B1: caveolin-3 (recombinant, expressed from pcDNA-Cav-3) (other)
chain: MMAEEHTDLEAQIVKDIHCKEIDLVNRDPKNINEDIVKVDFEDVIAEPVGTYSFDGVWKVSYTTFTVSKYWCYRLLSTLLGVPLALLWGFLFACISFCHIWAVVPCIKSYLIEIQCISHIYSLCIRTFCNPLFAALGQVCSSIKVVLRKEV
